B1: SAK 1CCT (protein)
chain: SSSFDKGKYKKGDDASYFEPTGPYLMVNVTGVDGKGNELLSPHYVEFPIKPGTTLTKEKIEYYVEWALDATAYKEFRVVELDPSAKIEVTYYDKNKKKEETKSFPITEKGFVVPDLSEHIKNPGFNLITKVVIEKKAC
B2: SAK 2CCT (protein)
chain: SSSFDKGKYKKGDDASYFEPTGPYLMVNVTGVDGKGNELLSPHYVEFPIKPGTTLTKEKIEYYVEWALDATAYKEFRVVELDPSAKIEVTYYDKNKKKEETKSFPITEKGFVVPDLSEHIKNPGFNLITKVVIEKKCC
B3: SAK 2CNT (protein)
chain: MCCSSSFDKGKYKKGDDASYFEPTGPYLMVNVTGVDGKGNELLSPHYVEFPIKPGTTLTKEKIEYYVEWALDATAYKEFRVVELDPSAKIEVTYYDKNKKKEETKSFPITEKGFVVPDLSEHIKNPGFNLITKVVIEKK
B4: SAK (Recombinant) (protein)
chain: SSSFDKGKYKKGDDASYFEPTGPYLMVNVTGVDGKGNELLSPHYVEFPIKPGTTLTKEKIEYYVEWALDATAYKEFRVVELDPSAKIEVTYYDKNKKKEETKSFPITEKGFVVPDLSEHIKNPGFNLITKVVIEKK
B5: SAK S3C (protein)
chain: SSCFDKGKYKKGDDASYFEPTGPYLMVNVTGVDGKGNELLSPHYVEFPIKPGTTLTKEKIEYYVEWALDATAYKEFRVVELDPSAKIEVTYYDKNKKKEETKSFPITEKGFVVPDLSEHIKNPGFNLITKVVIEKK
B6: SAK 1CNT (protein)
chain: MCSSSFDKGKYKKGDDASYFEPTGPYLMVNVTGVDGKGNELLSPHYVEFPIKPGTTLTKEKIEYYVEWALDATAYKEFRVVELDPSAKIEVTYYDKNKKKEETKSFPITEKGFVVPDLSEHIKNPGFNLITKVVIEKK

Molecular target: T1, human plasminogen, P00747
T1 chain: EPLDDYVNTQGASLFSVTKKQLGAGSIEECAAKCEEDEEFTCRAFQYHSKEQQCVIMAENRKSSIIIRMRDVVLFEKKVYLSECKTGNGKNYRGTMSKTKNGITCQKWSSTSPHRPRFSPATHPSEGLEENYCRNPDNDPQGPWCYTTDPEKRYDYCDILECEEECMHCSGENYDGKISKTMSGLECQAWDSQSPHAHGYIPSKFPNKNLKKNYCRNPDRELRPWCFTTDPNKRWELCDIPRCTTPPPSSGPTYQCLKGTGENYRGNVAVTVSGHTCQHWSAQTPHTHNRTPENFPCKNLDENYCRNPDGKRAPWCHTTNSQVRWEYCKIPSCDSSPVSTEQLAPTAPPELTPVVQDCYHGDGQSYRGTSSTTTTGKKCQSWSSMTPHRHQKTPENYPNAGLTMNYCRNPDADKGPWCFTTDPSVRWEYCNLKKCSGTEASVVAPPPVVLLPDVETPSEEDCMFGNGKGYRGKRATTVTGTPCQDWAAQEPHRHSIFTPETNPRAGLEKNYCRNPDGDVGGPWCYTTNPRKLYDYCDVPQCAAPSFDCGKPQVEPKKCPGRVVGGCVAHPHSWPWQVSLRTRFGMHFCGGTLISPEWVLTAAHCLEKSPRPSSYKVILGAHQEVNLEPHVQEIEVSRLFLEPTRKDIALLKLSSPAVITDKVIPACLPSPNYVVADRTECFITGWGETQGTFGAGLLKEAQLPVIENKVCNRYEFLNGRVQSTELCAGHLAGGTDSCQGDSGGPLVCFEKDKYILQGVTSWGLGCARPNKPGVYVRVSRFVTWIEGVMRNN

| Protein | Specific Activity (U/mg) |
| --- | --- |
| B1 | 64 ± 4.5 U/mg |
| B2 | 65 ± 3.8 U/mg |
| B3 | 57 ± 3 8 U/mg |
| B4 | 66 ± 3.5 U/mg |
| B5 | 60 ± 4.1 U/mg |
| B6 | 40 ± 4.3 U/mg |
